Measurements: US20260242478A1 (published 2026)
Where no end group is shown, it is not given here.

What was measured:
PSMA Fab (006 PSMA Fab) [1] = target: T1, PSMA Fab (006 PSMA Fab); experiment: clonal phage ELISA on biotinylated PSMA Fab captured on neutravidin plates, anti-M13-HRP detection;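 also: crude clonal phage supernatants added to wells preincubated with PSMA antigen or with blocking buffer only (no wash between), briefly incubated, then washed before detecting bound phage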
T1 construct: In the phage ELISA the PSMA Fab was biotinylated and captured on neutravidin coated plates; also called Anti-PSMA Fab; anti-PSMA Fab
Protocol: (§1) Clonal phage were harvested as crude supernatants and screened via standard ELISAs. […] Prior to the addition of clonal phage. wells were incubated with blocking buffer and PSMA antigen or blocking buffer alone. Without washing or aspirating, clonal phage supernatants were then added to the wells and incubated for a short time. Wells were then washed followed by detection of bound phage using a horse radish conjugated anti-M13 antibody.

PSMA Fab (006 PSMA Fab) [2] = target: T1, PSMA Fab (006 PSMA Fab); experiment: clonal phage ELISA on captured PSMA Fab, wells pre-incubated with PSMA antigen as competitor (column head not shown, assumed)
PSMA Fab [3] = target: T2, PSMA Fab (biotinylated (site not given)); experiment: phage ELISA on captured biotinylated PSMA Fab, wells pre-incubated with PSMA antigen (competitor: PSMA); anti-M13 HRP detection
T2 construct: Biotinylated PSMA Fab captured on neutravidin plates in the phage ELISA; also called Anti-PSMA Fab; 006 PSMA Fab

PSMA Fab [4] = target: T2, PSMA Fab; experiment: phage ELISA: clonal phage supernatant on biotinylated PSMA Fab captured on neutravidin plate, blocking buffer alone; anti-M13 HRP detection;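 also: crude clonal phage supernatants added to wells preincubated with blocking buffer, incubated briefly, bound phage detected with a horseradish-conjugated anti-M13 antibody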
Protocol: as §1

PSMA Fab [5] = target: T3, PSMA Fab; experiment: phage ELISA, biotinylated PSMA Fab on neutravidin plate, bound phage detected with anti-M13-HRP
T3 construct: also called Anti-PSMA Fab; 006 PSMA Fab
Protocol: as §1

PSMA Fab [6] = target: T3, PSMA Fab; experiment: phage ELISA, biotinylated PSMA Fab on neutravidin plate pre-incubated with PSMA antigen as competitor, anti-M13-HRP
Protocol: as §1

Binder	Phage binding ELISA signal, Anti-PSMA Fab (PSMA Fab (006 PSMA Fab) [1])	Phage binding ELISA signal, Anti-PSMA Fab with PSMA antigen (PSMA Fab (006 PSMA Fab) [2])	Phage binding ELISA signal, Anti-PSMA Fab in presence of PSMA (PSMA Fab [3])	Phage binding ELISA signal, Anti-PSMA Fab (PSMA Fab [4])	other results
PDKWCIPQWMCSQM (cysteine pairing not given here; also: fused to phage pIII (clonal phage display)) [Phage-2406]	1.36	0.0822	–	–	–
SERWCIPQWMCTAP (cysteine pairing not given here; also: displayed on bacteriophage by fusion to pIII) [Phage-2416]	1.34	0.0763	–	–	–
VDKLCRPAWMCVAS (peptide, not shown: large carriers, cysteine pairing not given here; also: displayed as fusion to phage pIII, Clonal phage of the Peptide-180 optimisation library, tested as crude supernatant) [Phage-2470]	–	–	0.0775	1.24	–
YHNWCVPQWMCVGL (peptide, not shown: large carriers, cysteine pairing not given here; also: displayed on phage as fusion to pIII, pIII and linker sequence not given here, Clonal phage of the Peptide-180 optimisation library, tested as crude supernatant) [Phage-2476]	–	–	0.127	1.23	–
FDPWCIPLWMCEGM (cysteine pairing not given here; also: displayed on bacteriophage by fusion to pIII) [Phage-2417]	1.34	0.0667	–	–	–
GEKWCIPDWMCAAA (cysteine pairing not given here; also: displayed on bacteriophage by fusion to pIII) [Phage-2412]	1.34	0.0769	–	–	–
GDKWCIPDWMCVQS (peptide, not shown: large carriers, cysteine pairing not given here; also: displayed as fusion to phage pIII, Clonal phage of the Peptide-180 optimisation library, tested as crude supernatant) [Phage-2467]	–	–	0.0692	1.24	–
EIKWCIPSWMCNTL (cysteine pairing not given here; also: displayed as fusion to phage pIII) [Phage-2420]	1.33	0.0772	–	–	–
MHHWCIPAWMCSTE [Phage-2410]	1.35	0.0812	–	–	–
MEKWCIPSWMCVGM [Phage-2405]	1.36	0.0682	–	–	–
PEHWCIPPWMCVVH (peptide, not shown: large carriers, cysteine pairing not given here; also: displayed on phage as fusion to pIII, pIII and linker sequence not given here, Clonal phage of the Peptide-180 optimisation library, tested as crude supernatant) [Phage-2473]	–	–	0.513	1.24	–
IEKWCIPQWMCGNP (cysteine pairing not given here; also: fused to phage pIII (clonal phage display)) [Phage-2403]	–	–	–	–	Phage binding ELISA signal, Anti-PSMA Fab (PSMA Fab [5]): 1.36; Phage binding ELISA signal, Anti-PSMA Fab with PSMA antigen (PSMA Fab [6]): 0.0574
YIKWCTPPWMCELM [Phage-2409]	1.35	0.15	–	–	–
VMKWCTPEWMCQVF [Phage-2402]	–	–	–	–	Phage binding ELISA signal, Anti-PSMA Fab (PSMA Fab [5]): 1.37; Phage binding ELISA signal, Anti-PSMA Fab with PSMA antigen (PSMA Fab [6]): 0.0622
LDMRCTPAWMCEGF (cysteine pairing not given here; also: displayed on bacteriophage by fusion to pIII) [Phage-2413]	1.34	0.0768	–	–	–
VDHWCTPEWMCVMM [Phage-2408]	1.36	0.0963	–	–	–

Binder	Phage binding ELISA signal, Anti-PSMA Fab (PSMA Fab (006 PSMA Fab) [1])	Phage binding ELISA signal, Anti-PSMA Fab with PSMA antigen (PSMA Fab (006 PSMA Fab) [2])	Phage binding ELISA signal, Anti-PSMA Fab in presence of PSMA (PSMA Fab [3])	Phage binding ELISA signal, Anti-PSMA Fab (PSMA Fab [4])	other results
QAKWCIPQWMCESY [Phage-2411]	1.35	0.0648	–	–	–
FSKLCIPAWMCSEE (cysteine pairing not given here; also: displayed on bacteriophage by fusion to pIII) [Phage-2418]	1.34	0.0956	–	–	–
DFHMCTPRWMCEGM (peptide, not shown: large carriers, cysteine pairing not given here; also: displayed on phage as fusion to pIII, pIII and linker sequence not given here, Clonal phage of the Peptide-180 optimisation library, tested as crude supernatant) [Phage-2474]	–	–	0.0622	1.24	–
VEKWCIPQWMCSMD (peptide, not shown: large carriers, cysteine pairing not given here; also: displayed on phage as fusion to pIII, pIII and linker sequence not given here, Clonal phage of the Peptide-180 optimisation library, tested as crude supernatant) [Phage-2477]	–	–	0.0715	1.23	–
VEKWCTPPWMCRFD (cysteine pairing not given here; also: displayed on bacteriophage by fusion to pIII) [Phage-2414]	1.34	0.074	–	–	–
FDKWCIPPWMCVGP (peptide, not shown: large carriers, cysteine pairing not given here; also: displayed on phage as fusion to pIII, pIII and linker sequence not given here, Clonal phage of the Peptide-180 optimisation library, tested as crude supernatant) [Phage-2472]	–	–	0.0689	1.24	–
FEKWCIPAWMCEQV (peptide, not shown: large carriers, cysteine pairing not given here; also: displayed as fusion to phage pIII, Clonal phage of the Peptide-180 optimisation library, tested as crude supernatant) [Phage-2468]	–	–	0.0596	1.24	–
VSKWCTPAWMCSAM (peptide, not shown: large carriers, cysteine pairing not given here; also: displayed as fusion to phage pIII, Clonal phage of the Peptide-180 optimisation library, tested as crude supernatant) [Phage-2469]	–	–	0.099	1.24	–
VAKWCIPSWMCETV (cysteine pairing not given here; also: displayed as fusion to phage pIII) [Phage-2419]	1.33	0.0735	–	–	–
TVKWCVPPWMCSVP [Phage-2407]	1.36	0.0764	–	–	–
LWKWCTPPWMCEVS (cysteine pairing not given here; also: displayed on bacteriophage by fusion to pIII) [Phage-2415]	1.34	0.0864	–	–	–
MQHWCVPPWMCQSL [Phage-2401]	–	–	–	–	Phage binding ELISA signal, Anti-PSMA Fab (PSMA Fab [5]): 1.37; Phage binding ELISA signal, Anti-PSMA Fab with PSMA antigen (PSMA Fab [6]): 0.082
EHKWCTPLWMCEGL (peptide, not shown: large carriers, cysteine pairing not given here; also: fused to phage pIII (clonal phage display), Clonal phage of the Peptide-180 optimisation library, tested as crude supernatant) [Phage-2475]	–	–	0.09	1.23	–
VVKWCTPSWMCTGF (peptide, not shown: large carriers, cysteine pairing not given here; also: displayed as fusion to phage pIII, Clonal phage of the Peptide-180 optimisation library, tested as crude supernatant) [Phage-2466]	–	–	0.0837	1.24	–
HTTWCTPAWMCQGF [Phage-2404]	–	–	–	–	Phage binding ELISA signal, Anti-PSMA Fab (PSMA Fab [5]): 1.36; Phage binding ELISA signal, Anti-PSMA Fab with PSMA antigen (PSMA Fab [6]): 0.0895
MEKWCIPDWMCLGN (peptide, not shown: large carriers, cysteine pairing not given here; also: displayed as fusion to phage pIII, Clonal phage of the Peptide-180 optimisation library, tested as crude supernatant) [Phage-2471]	–	–	0.0809	1.24	–
